Reference: publication PMC8140157, “RTEL1 influences the abundance and localization of TERRA RNA” (Nature Communications, 2020)
Substitutions are numbered along the chain they refer to.

How the values were obtained:
RTEL1∆762 [1] = molecular target: T1, RTEL1∆762 (human, UniProt Q9NZ71-6 762-1300); test: fluorescence anisotropy; RNA folded in 0 mM KCl; 20 mM Tris pH 7.5, 50 mM KCl, 0.5 mM TCEP, 0.5 mM MgCl2, 10% glycerol, 0.1% IGEPAL, room temperature 30 min; oligos refolded in 10 mM Tris pH 7.5, 100 mM KCl; EMSA legends give 150 or 300 mM KCl; settings: protein: recombinant; tags: 6xHis; chain copies: 2; label: 5' fluorescein; no G4 (folded without KCl)
T1 sequence: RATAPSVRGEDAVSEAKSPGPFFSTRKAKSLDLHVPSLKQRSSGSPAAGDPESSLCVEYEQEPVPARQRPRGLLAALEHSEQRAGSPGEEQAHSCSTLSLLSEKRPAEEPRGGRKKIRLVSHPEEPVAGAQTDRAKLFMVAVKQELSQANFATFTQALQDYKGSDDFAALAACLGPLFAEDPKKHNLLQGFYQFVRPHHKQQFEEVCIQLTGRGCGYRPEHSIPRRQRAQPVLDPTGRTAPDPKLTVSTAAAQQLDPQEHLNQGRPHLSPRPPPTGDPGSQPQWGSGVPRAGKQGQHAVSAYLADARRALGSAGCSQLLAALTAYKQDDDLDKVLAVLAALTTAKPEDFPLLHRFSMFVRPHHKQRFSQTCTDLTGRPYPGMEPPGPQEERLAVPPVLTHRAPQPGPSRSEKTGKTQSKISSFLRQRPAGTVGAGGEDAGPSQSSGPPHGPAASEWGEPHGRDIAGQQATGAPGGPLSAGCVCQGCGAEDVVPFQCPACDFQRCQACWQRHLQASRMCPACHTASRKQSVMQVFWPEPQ

RTEL1∆762-1097 [2] = molecular target: T2, RTEL1∆762-1097 (human, UniProt Q9NZ71-6 762-1097); test: competition (fluorescence anisotropy); vs FAM-TERRA-MUT, 1 uM; 20 mM Tris pH 7.5, 50 mM KCl, 0.5 mM TCEP, 0.5 mM MgCl2, 10% glycerol, 0.1% IGEPAL, room temperature 30 min; oligos refolded in 10 mM Tris pH 7.5, 100 mM KCl; EMSA legends give 150 or 300 mM KCl; settings: protein: recombinant, tags: 6xHis
T2 sequence: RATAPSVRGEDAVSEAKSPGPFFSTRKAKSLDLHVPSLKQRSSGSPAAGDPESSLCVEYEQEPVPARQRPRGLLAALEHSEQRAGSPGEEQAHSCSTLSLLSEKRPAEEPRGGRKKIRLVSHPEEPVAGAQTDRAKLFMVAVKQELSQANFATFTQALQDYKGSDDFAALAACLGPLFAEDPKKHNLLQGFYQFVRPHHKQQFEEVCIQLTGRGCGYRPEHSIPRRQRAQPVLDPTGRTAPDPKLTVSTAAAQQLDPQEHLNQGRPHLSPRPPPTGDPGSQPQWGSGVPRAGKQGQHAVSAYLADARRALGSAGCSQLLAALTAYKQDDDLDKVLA

RTEL1∆762R1264H [3] = molecular target: T3, RTEL1∆762R1264H (human, UniProt Q9NZ71-6 762-1300, R1264H); test: as above; settings: protein: recombinant, tags: 6xHis
T3 sequence: T1 sequence with R503H

RTEL1∆762 [4] = molecular target: T1, RTEL1∆762; test: as above; settings: protein: recombinant, tags: 6xHis, chain copies: 2
RTEL1∆762-1097 [5] = molecular target: T2, RTEL1∆762-1097; test: competition (fluorescence anisotropy); vs FAM-TERRA-MUT, 200 nM; 20 mM Tris pH 7.5, 50 mM KCl, 0.5 mM TCEP, 0.5 mM MgCl2, 10% glycerol, 0.1% IGEPAL, room temperature 30 min; oligos refolded in 10 mM Tris pH 7.5, 100 mM KCl; EMSA legends give 150 or 300 mM KCl; settings: protein: recombinant, tags: 6xHis
RTEL1∆762R1264H [6] = molecular target: T3, RTEL1∆762R1264H; test: as above; settings: protein: recombinant, tags: 6xHis
RTEL1∆762 [7] = molecular target: T1, RTEL1∆762; test: as above; settings: protein: recombinant, tags: 6xHis, chain copies: 2
RTEL1∆762 [8] = molecular target: T1, RTEL1∆762; test: competition (fluorescence anisotropy); vs FAM-TERRA-MUT, 200 nM; error in main text misprinted as 0.74 nM; 20 mM Tris pH 7.5, 50 mM KCl, 0.5 mM TCEP, 0.5 mM MgCl2, 10% glycerol, 0.1% IGEPAL, room temperature 30 min; oligos refolded in 10 mM Tris pH 7.5, 100 mM KCl; EMSA legends give 150 or 300 mM KCl; settings: protein: recombinant; tags: 6xHis; chain copies: 2; no G4
RTEL1∆762 [9] = molecular target: T1, RTEL1∆762; test: fluorescence anisotropy; RNA folded in 100 mM KCl; 20 mM Tris pH 7.5, 50 mM KCl, 0.5 mM TCEP, 0.5 mM MgCl2, 10% glycerol, 0.1% IGEPAL, room temperature 30 min; oligos refolded in 10 mM Tris pH 7.5, 100 mM KCl; EMSA legends give 150 or 300 mM KCl; settings: protein: recombinant; tags: 6xHis; chain copies: 2; label: 5' fluorescein; no G4
RTEL1∆762 [10] = molecular target: T1, RTEL1∆762; test: fluorescence anisotropy; 20 mM Tris pH 7.5, 50 mM KCl, 0.5 mM TCEP, 0.5 mM MgCl2, 10% glycerol, 0.1% IGEPAL, room temperature 30 min; oligos refolded in 10 mM Tris pH 7.5, 100 mM KCl; EMSA legends give 150 or 300 mM KCl; settings: protein: recombinant, tags: 6xHis, chain copies: 2, label: 5' fluorescein
RTEL1∆1143 = molecular target: T4, RTEL1∆1143 (human, UniProt Q9NZ71-6 1143-1300); test: EMSA; negligible at 5 uM protein; 150 mM KCl; 20 mM Tris pH 7.5, 50 mM KCl, 0.5 mM TCEP, 0.5 mM MgCl2, 10% glycerol, 0.1% IGEPAL, room temperature 30 min; oligos refolded in 10 mM Tris pH 7.5, 100 mM KCl; EMSA legends give 150 or 300 mM KCl; settings: protein: recombinant; tags: 6xHis; label: 5' fluorescein; G4
T4 sequence: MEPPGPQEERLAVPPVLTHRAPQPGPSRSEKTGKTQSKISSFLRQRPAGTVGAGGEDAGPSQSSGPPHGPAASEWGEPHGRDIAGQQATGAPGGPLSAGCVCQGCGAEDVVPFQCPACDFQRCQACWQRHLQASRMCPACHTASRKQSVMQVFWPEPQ

RTEL1∆762 [11] = molecular target: T1, RTEL1∆762; test: fluorescence anisotropy; RNA folded in 100 mM KCl; text: <10 nM, at detection limit; 20 mM Tris pH 7.5, 50 mM KCl, 0.5 mM TCEP, 0.5 mM MgCl2, 10% glycerol, 0.1% IGEPAL, room temperature 30 min; oligos refolded in 10 mM Tris pH 7.5, 100 mM KCl; EMSA legends give 150 or 300 mM KCl; settings: protein: recombinant; tags: 6xHis; chain copies: 2; label: 5' fluorescein; G4
[12] = molecular target: the molecule itself; test: SEC-MALS; 200-300 µg protein on Superdex 200 10/300 GL, 0.3 ml per minute, 50 mM Hepes pH 7.5, 1 mM TCEP, 150 or 300 mM NaCl; dimer to monomers

UUAGGGUUAGGGUUAGGGUUAGGG (ssRNA) [TERRA (FAM), not folded (0 mM KCl)]
Kd (RTEL1∆762 [1]): 37.1 ± 9.6 nM

GGTTAGGGTTAGGGTTAGGGTTAGGGTTAG (structured_DNA) [hTelo]
Ki (RTEL1∆762-1097 [2]; G4): 1720 ± 302 nM | Ki (RTEL1∆762R1264H [3]; G4): 212 ± 17 nM | Ki (RTEL1∆762 [4]; G4): 74 ± 12 nM | Ki (RTEL1∆762-1097 [5]; G4): 276 ± 39 nM | Ki (RTEL1∆762R1264H [6]; G4): 47 ± 9 nM | Ki (RTEL1∆762 [7]; G4): 29 ± 4 nM

UUACCGUUACCGUUACCGUUACCG (ssRNA) [TERRA-MUT competitor]
Ki (RTEL1∆762-1097 [2]; no G4): 16100 ± 15000 nM | Ki (RTEL1∆762R1264H [3]; no G4): 3810 ± 1450 nM | Ki (RTEL1∆762 [4]; no G4): 1450 ± 73 nM | Ki (RTEL1∆762-1097 [5]; no G4): 1650 ± 377 nM | Ki (RTEL1∆762R1264H [6]; no G4): 850 ± 125 nM | Ki (RTEL1∆762 [8]): 442 ± 74 nM

UUACCGUUACCGUUACCGUUACCG (ssRNA) [TERRA-MUT (FAM)]
Kd (RTEL1∆762 [9]): 108 ± 21.6 nM

AAAAAAAAAAAAAAAAAAAAAAAA (ssRNA) [Poly A 24mer]
Kd (RTEL1∆762 [10]): 498 ± 47.8 nM

UUAGGGUUAGGGUUAGGGUUAGGG (structured_RNA) [TERRA (FAM), folded in KCl]
binding result (RTEL1∆1143): no binding | Kd (RTEL1∆762 [11]): 1.3 ± 3.6 nM

AUUAUUAUUAUUAUUAUUAUUAUU (ssRNA) [AU-rich 24mer]
Kd (RTEL1∆762 [10]; unstructured): 42 ± 6.1 nM

B1: RTEL1^∆762 (human RTEL1 residues 762-1300, lacks the helicase domain) (domain or fragment, UniProt Q9NZ71-6 762-1300, looked up)
chain: T1 sequence
notes: residue numbers run to 1300; Cloned between EcoRI and XhoI of pET28; expected monomer mass printed as 62 kDa; source: E. coli BL21, purified (His-trap, Hi-Trap Q, Superdex 200)
stoichiometry N [12]: 2

UUAGGGUUAGGGUUAGGGUUAGGG (structured_RNA) [TERRA competitor]
Ki (RTEL1∆762-1097 [2]; G4): 978 ± 84 nM | Ki (RTEL1∆762R1264H [3]; G4): 107 ± 14 nM | Ki (RTEL1∆762 [4]; G4): 29 ± 4 nM | Ki (RTEL1∆762-1097 [5]; G4): 245 ± 35 nM | Ki (RTEL1∆762R1264H [6]; G4): 30 ± 7 nM | Ki (RTEL1∆762 [7]; G4): 17 ± 3 nM

GGTTACCGTTACCGTTACCGTTACCGTTAG (ssDNA) [hTelo-MUT]
Ki (RTEL1∆762-1097 [2]; no G4): 12600 ± 8470 nM | Ki (RTEL1∆762R1264H [3]; no G4): 1750 ± 520 nM | Ki (RTEL1∆762 [4]; no G4): 420 ± 140 nM | Ki (RTEL1∆762-1097 [5]; no G4): 826 ± 134 nM | Ki (RTEL1∆762R1264H [6]; no G4): 309 ± 68 nM | Ki (RTEL1∆762 [7]; no G4): 93 ± 11 nM
